What is called EC50 is the concentration at which the effect is half-maximal. Read a low EC50 as a more potent agent.

In test [1] the target is T1, human LILRB4 (human, UniProt Q8NHJ6 22-448). Kind of test: cell-based or functional assay.
Test [2] addresses T2, human LILRB3 (human, UniProt O75022 24-631).
T2 construct: whole, on cells; also called hLILRB3
Kind of test: FACS, 293F-hLILRB3 cells. The gist of the method:
(§1)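 Cells expressing the target (2×10⁵/well) were incubated with antibody for 1 h at 4 °C, washed, and stained with secondary antibody for 1 h at 4 °C in the dark. Binding was read by flow cytometry.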

Test [3] has as its target T1, human LILRB4. Kind of test: cell-based or functional assay. This is another data set of the same source.
Test [4] concerns the target T1, human LILRB4. Kind of test: cell-based or functional assay. This is another data set of the same source.
Test [5] concerns the target T3, human LILRA6 protein (human, UniProt Q6PI73 24-447, limits assumed).
T3 construct: protein for ELISA; construct not described; also called hLILRA6 protein
The test can be described thus: ELISA, LILRA6 protein. On the technique in general: ELISA stands for enzyme-linked immunosorbent assay.

For test [6], the target named is T1, human LILRB4. Kind of test: FACS, 293F-hLILRB4 cells. The gist of the method: as §1
For orientation: A flow cytometer gives signals particle by particle.

Test [7] addresses T1, human LILRB4. The test can be described thus: ELISA and FACS on 293F-hLILRB4 cells.
The target in test [8] is T4, cynomolgus (Macaca fascicularis) LILRB4 (cynomolgus (Macaca fascicularis)).
T4 construct: whole, on cells; also called cynoLILRB4; CHO-S-cynoLILRB4
The test can be described thus: FACS, CHO-S-cynoLILRB4 cells. How it is done:
The protocol for FACS analysis is described as follows: [0438] (a) Cells were harvested by centrifugation at 300 g for 3 mins. […] (b) The cells were washed for 2 times with FACS buffer by centrifuging at 300 g for 3 mins and the supernatant was discarded. [0440] (c) Cell were resuspended and seeded into assay plate (2×10⁵ cells/well) in 50 μl FACS buffer. […] Cells were incubated with antibodies at 4° C. for 1 hour. […] (d) Step (b) was repeated and the cells were resuspended with 100 μl diluted 2nd antibody, incubated at 4° C. for 1 hour in the dark. [0442] (e) Step (b) was repeated and the cells were resuspended with 100 μl FACS buffer. The cells were kept in dark for FACS analysis.

T2 sequence (O75022 24-631): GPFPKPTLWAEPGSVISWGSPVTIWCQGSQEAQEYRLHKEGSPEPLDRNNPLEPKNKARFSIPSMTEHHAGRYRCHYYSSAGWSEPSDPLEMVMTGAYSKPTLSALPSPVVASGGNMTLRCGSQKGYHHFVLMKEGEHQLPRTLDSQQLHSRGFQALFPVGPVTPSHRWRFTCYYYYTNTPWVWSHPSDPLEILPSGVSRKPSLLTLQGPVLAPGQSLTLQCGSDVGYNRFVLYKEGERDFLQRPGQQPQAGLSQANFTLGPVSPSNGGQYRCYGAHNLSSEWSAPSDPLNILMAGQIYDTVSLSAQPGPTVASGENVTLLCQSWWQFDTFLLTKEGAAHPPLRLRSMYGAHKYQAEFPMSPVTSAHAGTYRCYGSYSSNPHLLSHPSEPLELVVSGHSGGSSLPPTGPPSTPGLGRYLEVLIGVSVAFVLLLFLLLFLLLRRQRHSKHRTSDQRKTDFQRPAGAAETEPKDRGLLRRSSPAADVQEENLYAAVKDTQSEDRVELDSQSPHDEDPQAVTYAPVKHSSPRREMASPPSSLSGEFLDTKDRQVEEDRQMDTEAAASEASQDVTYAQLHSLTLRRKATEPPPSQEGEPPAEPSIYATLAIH
T3 sequence (Q6PI73 24-447 limits assumed): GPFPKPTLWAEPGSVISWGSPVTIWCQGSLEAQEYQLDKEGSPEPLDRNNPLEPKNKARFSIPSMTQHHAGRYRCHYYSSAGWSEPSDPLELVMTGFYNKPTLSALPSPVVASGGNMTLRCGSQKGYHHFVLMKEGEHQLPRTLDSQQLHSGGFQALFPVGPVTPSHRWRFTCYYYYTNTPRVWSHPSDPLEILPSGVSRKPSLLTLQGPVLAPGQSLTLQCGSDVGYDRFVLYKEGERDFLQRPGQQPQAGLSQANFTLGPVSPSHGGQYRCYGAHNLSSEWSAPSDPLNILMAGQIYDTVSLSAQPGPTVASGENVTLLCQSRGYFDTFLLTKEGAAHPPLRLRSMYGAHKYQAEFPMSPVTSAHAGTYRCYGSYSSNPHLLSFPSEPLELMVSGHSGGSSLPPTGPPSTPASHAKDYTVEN

B1: ch36-F4-H1-D9 (antibody, V domains shown)
VH: EVKLLESGGGLVQPGGSLKLSCAASGFDFSRYWMIWVRQAPEKGLEWIGEINPDSSTINYTPSLKDKFIISRDNAKNTLYLQMSKVRSEDTALYYCARPYYRYDVGYFDVWGAGTTVTVSS
VL: DIVMTQAPKVLLVSAGDRVTISCKASQSVSNAVVWYQQKPGQSPKLLIFYASNRYTGVPDRFTGSGYGTDFTFSISTVQAEDLAVYFCQQDYSSPWTFGGGTKLEIK
As to B1, in test [1], the “Max cell cytotoxicity (%), ADCC on THP-1 cells” value was found to be 17.9%. In test [2], the binding result is listed as “no binding (tested: up to 66.67 nM)”. Also, in test [3], the “FcγR stimulation (TNF-α, pg/mL)” value is 543 pg/mL and the “Fold change (Compared to isotype)” value turned out to be 17.2 fold. Further, the “ADCP (%) at 133.3 nM, macrophages and MV-4-11 cells” value in test [4] turned out to be 14.8%. Also, the binding result in test [5] was “no binding”. For the same molecule, in test [6], the EC50 is 1.99 nM and the “Max MFI” value came out at 48200 MFI.

B2: h8-B3-F6-H8 (antibody, V domains shown)
VH: EVQLVESGGGLVQPGGSLRLSCAASGFDFSRYWMSWVRQAPGKGLVWIGEINPESSAINYAPSLKDRFTISRDNAKNTLYLQMNSLRAEDTAVYYCATSMTMDYWGQGTLVTVSS
VL: DIQMTQSPSSLSASVGDRVTITCKASQDIKSYLSWYQQKPGKAPKTLIYYATSLAGGVPSRFSGSGSGTDYTLTISSLQPEDFATYYCLQHGESPYTFGGGTKLEIK
notes: humanized antibody of ch8-B3-F6-H8; also called humanized 8-B3-F6-H8
In the case of B2, the binding result in test [7] is on record as “binds”.

B3: ch44-F10-B6-D4 (antibody, V domains shown)
VH: EVHLVESGGGLVKPGGSLKLSCAASGFTFSSYAMSWVRQTPEKRLEWVATISSGGSYIYYPDSVKGRFTISRDNAKNTLYLQMSSLRSEDTAMYYCARQDWDGGDYYAMDYWGQGTSVTVSS
VL: DIVMTQSPSSLAVSAGEKVTMSCKSSQSVLYSSNQKNFLAWYQQKPGQSPKLLIYWASTRESGVPDRFTGSGSGTDFTLTISSVQAEDLAVYYCHQYLSSLTFGAGTKLELK
In the case of B3, in test [1], the “EC50 (nM), ADCC on THP-1 cells” value turned out to be 1.43 nM and the “Max cell cytotoxicity (%), ADCC on THP-1 cells” value was 0.43%. The binding result in test [2] was “no binding (tested: up to 66.67 nM)”. Further, in test [3], the “FcγR stimulation (TNF-α, pg/mL)” value came out at 126 pg/mL and the “Fold change (Compared to isotype)” value stood at 3.97 fold. In addition, it took 103 nM to reach a half-maximal effect in test [8] (EC50). In addition, the “ADCP (%) at 133.3 nM, macrophages and MV-4-11 cells” value in test [4] is 3.12%. The binding result in test [5] is “no binding”. In test [6], the EC50 turned out to be 0.57 nM and the “Max MFI” value worked out at 5470 MFI.

B4: h2-H1-D7-E5-D5 (antibody, V domains shown)
VH: EVQLVESGGGLVQPGGSLRLSCAASGFTFSSFGMHWVRQAPGKGLEWVAYISSGSSSIYYADTVKGRFTISRDNAKNSLYLQMNSLRAEDTAVYYCARGTGTGAMDYWGQGTLVTVSS
VL: DIQMTQSPSSLSASVGDRVTITCRTSQDISNYLNWYQQKPGKAPKLLIYYTSKLHSGVPSRFSGSGSGTDFTFTISSLQPEDIATYFCQQGNTLPWTFGGGTKLEIK
notes: humanized antibody of ch2-H1-D7-E5-D5; also called humanized 2-H1-D7-E5-D5
For B4, in test [7], the binding result was “binds”.

The values above are taken from patent US20250361295A1 (ANTENGENE BIOLOGICS, published 2025).
